Laboratory results taken from patent publication US20220273793A1, “HORSE IL-31 INDUCED PRURITUS MODEL” (priority 2021, published 2022).
“And” between values parts separate entries of the source, which are not always exact repeats. Equal values may be shown once.

Tests used:
equine IL-31 = experiment: Equine challenge study using the IL-31 itch model after IL-31 mimotope vaccines; type: in vivo, Horse; settings: for 1st Challenge Score (pruritus score): CRM197 conjugate 25 μg/dose, SP oil + CpG, IL-31 challenge Day 14 post-boost; for 1st Challenge Score (pruritus score) / Percent Change, 1st Challenge vs Historical Score / Percent Change, 2nd Challenge vs Historical Score / 2nd Challenge Score (pruritus score): individual horses; for 1st Challenge Average % Change in pruritus scores / Percent Change, 1st Challenge vs Historical Score: Day 14 post-boost; for 1st Challenge Average % Change in pruritus scores / 2nd Challenge Average % Change in pruritus scores: group mean; for 2nd Challenge Average % Change in pruritus scores / Percent Change, 2nd Challenge vs Historical Score: Day 105 post-boost; for 2nd Challenge Score (pruritus score): IL-31 challenge Day 105 post-boost
From the text: Based on the high antibody titers elicited by horses vaccinated with CRM197 conjugated IL 31 mimotopes (FIG. 4), horses from the serology studies were utilized in a challenge study using the IL-31 itch model developed by the present inventors. Selected horses were vaccinated with an additional boost of the corresponding mimotope vaccines, after conclusion of the serology study, and were challenged with IL-31 at Day 14 after the final boost and at Day 105 after the final boost.
Various candidate IL-31 mimotope constructs were evaluated, including ZTS-7240 (comprising SEQ ID NO:4) mimotope (constrained) corresponding to the 1505 region and ZTS-241 (comprising SEQ ID NO:6) mimotope (linear) corresponding to the A helix of the IL-31 homology model (FIG. 2). Study design is outlined in Table 6 below:
There were no treatment groups T02 and T04 assigned in this study in order to continue to keep the group designations of respective horses from the first serology study. One horse each from treatment groups T02 and T04 from the first serology were used in treatment group T08 as negative controls (No booster dose given; challenged on Day 14 and Day 105 along with other treatment groups).

Horse = experiment: Equine IL-31 induced pruritus model via IL-31 challenge (dose finding); type: in vivo
Description: Three to eight horses were tested at one time. Dose level depended on the pruritic response from the previous dosing group. The final desired dose was repeated. The final study design was as follows (Table 1):
Observations of normal pruritic behavior (baseline pruritus scores) were made prior to the administration of IL-31 challenge. The horses were scored the same was as post challenge observations except no IL-31 challenge was administered and observation of normal pruritic behavior was made for 30 minutes.
Following baseline pruritus score, horses were administered the IL-31 challenge. IL-31 challenge was administered intravenously to each animal via a jugular vein. The horse ID and time of administration was recorded. Recording of pruritic activity began approximately 15 to 25 minutes after the last of the horses is administered the IL-31 challenge (Table 2 (A to F) below and FIG. 1).
Classical signs of pruritus in horses include: • Biting or scratching at self • Rubbing against objects • Feet stomping • Tail flicking • Head or body shaking • Rolling • Twitching of skin
A “yes” response was indicated by marking a “1” and a “no” response was indicated by marking a “0” during the one minute interval. The cumulative number of yes responses were added to determine a cumulative Pruritus Score for each horse.

[1] = IL-31 0.05 μg/kg IV, average (Table 2E)
[2] = IL-31 0.1 μg/kg IV, average (Table 2D)
[3] = IL-31 0.25 μg/kg IV, average (Table 2C)
[4] = IL-31 0.25 μg/kg IV, repeat in second set of horses, average (Table 2F)
[5] = IL-31 0.25 μg/kg IV, repeat in second set of horses, individual horses (Table 2F)
[6] = IL-31 0.5 μg/kg IV, average (Table 2B)

Ac-C[Ahx]C(mT2b)TEVSMPTDNFERKRFILTC(mT2b)-NH2 [ZTS-7240]
1st Challenge Score (pruritus score) (equine IL-31; T03, T05, T06, T07: IM): 6 and 21 and 18 | 1st Challenge Average % Change in pruritus scores (equine IL-31; T03, T05, T06, T07: IM): −84.61% | Percent Change, 1st Challenge vs Historical Score (equine IL-31; T03, T05, T06, T07: IM): −94.13% and −76.74% and −82.94% | 2nd Challenge Average % Change in pruritus scores (equine IL-31; T03, T05, T06, T07: IM): −84.27% | Percent Change, 2nd Challenge vs Historical Score (equine IL-31; T03, T05, T06, T07: IM): −92.18% and −83.39% and −77.25% | 2nd Challenge Score (pruritus score) (equine IL-31; T03, T05, T06, T07: IM): 8 and 15 and 24 | reduction in itch (relative to historic scores) (equine IL-31; vaccinated horses, after 105 days of the final booster dose): 80%

Ac-CGSGNSSAILPYFKAISPSLNNDKSLYIIEQLDKLNF-NH2 (not fully specified; printed as Ac-CGSGNSSAILPYFKAISPSLNNDKSLYIIEQLDKLNF-NH2; numbers in words are those of the source; also: CRM197 conjugate) [ZTS-765, tested as CRM197 conjugate with SP oil + CpG]
1st Challenge Score (pruritus score) (equine IL-31; T01, SC): 17 and 11 | 1st Challenge Average % Change in pruritus scores (equine IL-31; T01, SC): −82.12% | Percent Change, 1st Challenge vs Historical Score (equine IL-31; T01, SC): −74.81% and −89.42% | 2nd Challenge Average % Change in pruritus scores (equine IL-31; T01, SC): −25.88% | Percent Change, 2nd Challenge vs Historical Score (equine IL-31; T01, SC): −39.26% and −12.50% | 2nd Challenge Score (pruritus score) (equine IL-31; T01, SC): 41 and 91 | 1st Challenge Score (pruritus score) (equine IL-31; T03, T05, T06, T07: IM): 4 and 33 and 21 | 1st Challenge Average % Change in pruritus scores (equine IL-31; T03, T05, T06, T07: IM): −77.62% | Percent Change, 1st Challenge vs Historical Score (equine IL-31; T03, T05, T06, T07: IM): −94.54% and −66.33% and −72.00% | 2nd Challenge Average % Change in pruritus scores (equine IL-31; T03, T05, T06, T07: IM): −45.03% | Percent Change, 2nd Challenge vs Historical Score (equine IL-31; T03, T05, T06, T07: IM): −23.60% and −40.82% and −70.67% | 2nd Challenge Score (pruritus score) (equine IL-31; T03, T05, T06, T07: IM): 56 and 58 and 22

B1: IL-31: recombinant histidine tagged equine IL-31 polypeptide, SEQ ID NO: 10 less signal sequence, used as IV challenge material (protein)
chain: GPIYQLQPKEIQAIIVELQNLSKKLLDDYLNKEKGVQKFDSDLPSCFTSDSQAPGNINSSAILPYFKAISPSLNNDKSLYIIEQLDKLNFQNAPETEVSMPTDNFERKRFILTILRWFSNCLEHRAQHHHHHH
Post Challenge Pruritus Score/120 (Horse; IL-31 0.05 μg/kg IV, 120 min observation, individual horses (Table 2E)): 50 and 36 and 67 and 43 and 25 and 42 and 45 and 37 | Post Challenge Pruritus %, Average (Horse; [1]): 36% | Post Challenge Pruritus Score/120, Average (Horse; [1]): 43.1 | Post Challenge Pruritus % (Horse; IL-31 0.05 μg/kg IV, individual horses (Table 2E)): 42% and 30% and 56% and 36% and 21% and 35% and 38% and 31% | Post Challenge Pruritus Score/120 (Horse; IL-31 0.1 μg/kg IV, 120 min observation, individual horses (Table 2D)): 62 and 72 and 115 and 74 and 71 and 86 and 96 and 103 | Post Challenge Pruritus %, Average (Horse; [2]): 71% | Post Challenge Pruritus Score/120, Average (Horse; [2]): 84.9 | Post Challenge Pruritus % (Horse; IL-31 0.1 μg/kg IV, individual horses (Table 2D)): 52% and 60% and 96% and 62% and 59% and 72% and 80% and 86% | Post Challenge Pruritus Score/120 (Horse; IL-31 0.25 μg/kg IV, 120 min observation, individual horses (Table 2C)): 95 and 84 and 109 and 81 and 86 and 113 (2×) | Post Challenge Pruritus %, Average (Horse; [3]): 81% | Post Challenge Pruritus Score/120, Average (Horse; [3]): 97.3 | Post Challenge Pruritus % (Horse; IL-31 0.25 μg/kg IV, individual horses (Table 2C)): 79% and 70% and 91% and 68% and 72% and 94% (2×) | Post Challenge Pruritus %, Average (Horse; [4]): 48% | Post Challenge Pruritus Score/120, Average (Horse; [4]): 57.6 | Post Challenge Pruritus % (Horse; [5]): 47% and 17% and 9% and 73% and 57% and 72% and 43% and 68% | Post Challenge Pruritus Score/120 (Horse; [5]): 56 and 20 and 11 and 87 and 68 and 86 and 52 and 81 | Post Challenge Pruritus Score/120 (Horse; IL-31 0.5 μg/kg IV, 120 min observation, individual horses (Table 2B)): 120 (2×) and 70 and 117 and 106 and 93 and 110 | Post Challenge Pruritus %, Average (Horse; [6]): 88% | Post Challenge Pruritus Score/120, Average (Horse; [6]): 105.1 | Post Challenge Pruritus % (Horse; IL-31 0.5 μg/kg IV, individual horses (Table 2B)): 100% (2×) and 58% and 98% and 88% and 78% and 92% | Post Challenge Pruritus Score/120, Average (Horse; IL-31 1.0 μg/kg IV, 120 min observation, average (Table 2A)): 114.7 | Post Challenge Pruritus Score/120 (Horse; IL-31 1.0 μg/kg IV, 120 min observation, individual horses (Table 2A)): 120 (2×) and 104 | Post Challenge Pruritus %, Average (Horse; IL-31 1.0 μg/kg IV, average (Table 2A)): 96% | Animal health observations after post challenge observation period (Horse; IL-31 1.0 μg/kg IV, first three horses, given diphenhydramine): uncomfortable level of pruritus and needed treatment | Post Challenge Pruritus % (Horse; IL-31 1.0 μg/kg IV, individual horses (Table 2A)): 100% (2×) and 87% | Animal health observations: adverse events of anaphylaxis (Horse; IL-31 0.05-1.0 μg/kg IV, horses): No adverse events of anaphylaxis were noted
